Biological target: the molecule itself
Assay: western blot of cell lysates

B1: serine racemase (enzyme, rat (endogenous in primary microglia), UniProt Q76EQ0 1-333, looked up)
chain: MCAQYCISFADVEKAHLNIQDSVHLTPVLTSSILNQIAGRNLFFKCELFQKTGSFKIRGALNAIRGLIPDTLEGKPKAVVTHSSGNHGQALTYAAKLEGIPAYIVVPQTAPNCKKLAIQAYGASIVYSEPSDESRENVAQRIIQETEGILVHPNQEPAVIAGQGTIALEVLNQVPLVDALVVPVGGGGMVAGIAITIKTLKPSVKVYAAEPSNADDCYQSKLKGELTPNLHPPETIADGVKSSIGLNTWPIIRDLVDDVFTVTEDEIKYATQLVWERMKLLIEPTAGVGLAAVLSQHFQTVSPEVKNICIVLSGGNVDLTSLSWVKQAERPAP
- stoichiometry N: 2

Source: article PMC483052 (Journal of Neuroinflammation, 2004)
